Entries after “also recorded” stand apart in the source; their conditions may differ.
How the values were obtained:
[1] = tested on: human uveal melanoma 92.1 cells; assay: Cell-ELISA on intact cells; type: cell-based; settings: mAb 1 μg/mL, fixed, non-permeabilized cells
Method: (§1) Cell-ELISA Methodology: 8,000-10,000 cells/well of a 96-well microplate were grown overnight. The next day, unbound cells were washed off with sterile 1×PBS. The cells in each well were fixed with freshly prepared 4% buffered paraformaldehyde (pH 7.2) for 1 hour followed by 3 washes with 1×PBS. The wells were then blocked with 5% BSA in PBS (100 μl/well) for 2 hours at room temperature. Microplate wells were then washed 5 times with 300 μl of ice cold 1×PBS. MAbs NMC-103, NMC-204 or NMC-303 at 1 μg/mL in 1% BSA/PBS were then incubated with various cancer or normal untransformed cells for 2 hours at room temperature. Wells were then washed with 300 μl of ice-cold 1×PBS for 5 times and corresponding secondary antibody HRP-GaM F(ab′)2 diluted 1:2500 or 1:5000 in PBS with 1% BSA were added at 100 μl/well for 1 hour at room temperature followed by washing 5 times with 300 μl of ice-cold 1×PBS. TMB Substrate Solution (1-Step™ Ultra TMB-ELISA, ThermoFisher, Cat. No. 34028) was then added at 50 μL to each microplate well and incubated at room temperature for 30 minutes. The reaction was stopped by addition of 50 μL of stop solution (ThermoFisher, Cat. No. SS04) to each well and absorbance of each well was measured at OD450 nm. The absorbance value of each experimental well was corrected for the absorbance value obtained from wells treated with isotype-identical mAbs included in each experiment. The results are thus expressed as “relative binding”.

[2] = tested on: normal human peripheral blood mononuclear cells (PBMCs); assay: Cell-ELISA on intact cells; type: cell-based; settings: freshly isolated normal human PBMCs
Method: as §1

[3] = tested on: human triple negative breast cancer HCC1806 cells; assay: Cell-ELISA on intact cells; type: cell-based; settings: mAb 1 μg/mL, fixed, non-permeabilized cells
Method: as §1

[4] = tested on: human melanoma A2058 cells; assay: Cell-ELISA on intact cells; type: cell-based; settings: for relative binding (reactivity) to intact cells, cell-ELISA: A2058, mAb 1 μg/mL, fixed, non-permeabilized cells
Method: as §1
(§2) In a 96-well microplate, 15,000 cells/well were cultured overnight. The next day, unbound cells were washed off with sterile 1×PBS. The cells in each well were fixed with freshly prepared 4% buffered paraformaldehyde (pH 7.2) for 1 hour, followed by 3 washes with 1×PBS. The wells were then blocked with 5% BSA in PBS (100 μl/well) for 2 hours at room temperature. Microplate wells were then washed 5 times with 300 μl of ice cold 1×PBS. Monoclonal antibodies NMC-H103 (VH4/VK3) or NMC-C303 at 5 μg/mL in 1% BSA/PBS were then incubated with various cancer cells for 2 hours at room temperature. Wells were then washed with 300 μl of ice-cold 1×PBS for 5 times and corresponding secondary antibody HRP-GaH F(ab′)2 diluted 1:2000 or 1:4000 in PBS with 1% BSA were added at 100 μl/well for 1 hour at room temperature followed by washing 5 times with 300 μl of ice-cold 1×PBS. TMB Substrate Solution (1-Step™ Ultra TMB-ELISA, ThermoFisher, Cat. No. 34028) was then added at 50 μL to each microplate well and incubated at room temperature for 30 minutes. The reaction was stopped by addition of 50 μL of stop solution (ThermoFisher, Cat. No. SS04) to each well and absorbance of each well was measured at OD450 nm. The absorbance value of each experimental well was corrected for the absorbance value obtained from wells treated with isotype-identical mAbs included in each experiment.

[5] = tested on: mouse Lewis Lung LL/2 cells; assay: Cell-ELISA on intact cells; type: cell-based; settings: for relative binding (reactivity) to intact cells, cell-ELISA: LL/2, mAb 1 μg/mL, fixed, non-permeabilized cells
Method: as §1, §2

[6] = molecular target: T1, recombinant HDM2 protein (GST tagged) (Homo sapiens, UniProt Q00987); assay: Western blot (immunoblot); type: binding; settings: 1 μg/well protein, antibody 1 μg/ml; band at approximately 83 kD
T1 construct: NMC-103, NMC-204 and NMC-303 reacted with the recombinant full-length HDM2 protein; purchased Abcam ab188727
Method: Western Blot: As for immunoblots, 1 μg/well of recombinant HDM2 protein (GST tagged, Abcam, Cat. No. ab188727) was separated on 8-16% sodium dodecyl sulfate (SDS) polyacrylamide gel and proteins were then transferred to polyvinylidene difluoride (PVDF) membrane. The membrane was blocked with 5% milk followed by incubation with monoclonal antibody NMC-103, NMC-204 or NMC-303 at 1 μg/ml in 1% milk in PBS for 2 hours. The membrane was then washed ×3 times (10 minutes each) and incubated for 1 hour with corresponding HRP-conjugated secondary antibody (Goat anti-Mouse IgG (H&L), F(ab′)2 Frag Cross-adsorbed HRP (HRP-GaM F(ab′)2), ThermoFisher, Cat. No. A24524) diluted 1:5000 in 1% BSA-PBS. The membrane was then washed ×3 times and incubated with Pierce ECL Plus Western Blotting Substrate (ThermoFisher, Cat. No. #32132) for 10 min before developing on a LICOR Scanner.

T1 sequence (Q00987 whole entry): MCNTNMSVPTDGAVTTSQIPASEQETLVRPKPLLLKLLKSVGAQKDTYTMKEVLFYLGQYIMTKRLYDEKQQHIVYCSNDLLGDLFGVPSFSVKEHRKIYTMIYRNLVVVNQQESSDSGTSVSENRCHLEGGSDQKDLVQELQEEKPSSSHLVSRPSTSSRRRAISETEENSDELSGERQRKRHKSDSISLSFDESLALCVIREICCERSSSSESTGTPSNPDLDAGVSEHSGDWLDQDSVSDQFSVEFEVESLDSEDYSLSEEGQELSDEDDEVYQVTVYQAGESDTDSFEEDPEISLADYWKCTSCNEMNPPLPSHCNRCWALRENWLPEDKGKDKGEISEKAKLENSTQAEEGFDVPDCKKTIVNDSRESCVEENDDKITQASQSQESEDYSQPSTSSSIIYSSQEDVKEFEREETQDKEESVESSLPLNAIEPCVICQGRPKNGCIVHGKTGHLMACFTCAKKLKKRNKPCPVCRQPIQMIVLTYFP

Molecule | relative binding (reactivity) to intact cells, cell-ELISA [1] | binding to intact normal cells, cell-ELISA [2] | relative binding (reactivity) to intact cells, cell-ELISA [3] | relative binding (reactivity) to intact cells, cell-ELISA [4] | relative binding (reactivity) to intact cells, cell-ELISA [5] | reactivity with recombinant full-length HDM2-GST protein (immunoblot) [6] | binding to intact, un-permeabilized cells, cell-based ELISA ([4]; mAb 5 μg/mL) | OD reading / binding after pre-incubation of antibody with NMC-P1 ([5]; LL/2 cells, antibody 5 μg/mL, NMC-P1 at ×10 the concentration of mAbs)
NMC-103: mouse monoclonal antibody of the IgG1 isotype that binds to NMC-P1 (SEQ ID NO:1); VH SEQ ID NO:36, VL SEQ ID NO:37 (antibody, V domains shown, mAb NMC-103 Heavy Chain Variable Region; mAb NMC-103 Light Chain Variable Region) VH: EVQLQESGGGLVQPGGSLRLSCTTSGFTFTHYYMSWVRQPPGKALEWLGFIRNKAKGYTAEYSASVKGRFTISRDNSQSILYLQMNTLRPEDSATYYCARDIGDNWGQGTLVTVSS VL: DIVMTQAAFSNPVTLGTSASISCRSSKNLLHSNGITYLYWYLQRPGQSPQLLISRVSNLASGVPNRFSGSESGTDFTLRISRVEAEDVGVYFCAQLLELPYTFGGGTKLEIK | reactivity | virtually no binding | reactivity | reactivity | reactivity | reacted |  | 
NMC-H103 (VH4/VK3): humanized NMC-103 variant, human IgG1, VH4 (SEQ ID NO:299) and VK3 (SEQ ID NO:297) (antibody, V domains shown, human IgG1 constant regions lacking entries; mAb NMC-H103.VH4Heavy Chain Variable Region; mAb NMC-H103.VK3Light Chain Variable Region) VH: EVQLVESGGGLVQPGPSLRLSCTTSGFTFTHYYMSWVRQAPGKGLEWLGFIRNKAKGYTAEYSASVKGRFTISRDNSKSTLYLQMNSLRAEDTAVYYCARDIGDNWGQGTLVTVSS VL: DIVMTQTPLSSPVTLGQPASISCRSSKNLLHSNGITYLYWYLQKPGQSPQLLISRVSNLASGVPDRFSGSESGTDFTLKISRVEAEDVGVYFCAQLLELPYTFGGGTKVEIK |  |  |  |  |  |  | binding | 1.09 OD450 (absorbance, unitless)
NMC-204: mouse monoclonal antibody of the IgG3 isotype that binds to NMC-P2 (SEQ ID NO:2); VH SEQ ID NO:38, VL SEQ ID NO:39 (antibody, V domains shown, mAb NMC-204 Heavy Chain Variable Region; mAb NMC-204 Light Chain Variable Region) VH: EVQLQESGSVLVRPGASVKLSCKASGDTLSGSWMHWAMQRPGQGLEWIGEIHLNRGTTNYNEKFKGKATVTVDTSSSTAYVDLSSLTSEDSAVYYCARSPGFAYWGQGTLVTVSA VL: GIVMTQAAPSVPVTPGESVSISCRSSKSLLHSNGNSYLYWFLQRPGQSPQLLIYRMSNLASGVPDRFSGSGSGTAFTLRITRVEAEDVGVYYCMQHLEYPFTFGSGTKLEIK | reactivity | did not react; also recorded: virtually no binding | reactivity | reactivity | reactivity | reacted |  | 
